# Test results as given in US5576295A, “Agent for suppressing the motor activity of gastrointestinal tracts” (Nisshin Flour Milling Co., Ltd., priority 1993, dated 1996).
# B1: Glicentin: One of enteroglucagons, a peptide comprising 69 amino acid residues; human glicentin (SEQ ID NO: 1) prepared by genetic engineering (protein)
# chain: RSLQDTEEKSRSFSASQADPLSDPDQMNEDKRHSQGTFTSDYSKYLDSRRAQDFVQWLMNTKRNRNNIA
# Assays:
# male BALB/c mice = assay: Intraperitoneal administration to mice, observation of appearance; format: in vivo; conditions: 10 mg/kg intraperitoneally, male BALB/c mice (6 weeks age)
# [1] = test system: motor activity of gastrointestinal tracts; assay: Motor activity of gastrointestinal tracts in the post-feed period in dogs sutured with strain gauge transducers; format: in vivo
# Method: An experiment was performed as described below in order to examine the action of glicentin on a motility of gastrointestinal tracts.
# Six hybrid dogs weighing 16-18 kg were sutured with strain gauge transducers (manufactured by Star Medical, F121S) at a site of the gastric antrum 4 cm from the pyloric ring, a site of the duodenum for the main incurrent pancreatic duct and a site of the jejunum 10 cm from the Treitz's ligamentum, respectively, to measure the contractile force intensity of the circular muscle. Recovery period for the suture was 2 weeks.
# Three of the 6 dogs were intravenously given over 1 hour 15 ml of a physiological saline solution in which 400 pmol of glicentin had been dissolved per kg of bodyweight. The remaining three received an aqueous physiological solution containing no glicentin in the same way as above as a control for comparison. The dogs were fed on 15 g of a solid diet (SD®, manufactured by Oriental Yeast K.K.) and 15 g of Vitaone® (manufactured by Nihon Pet Food K.K. and Kyodo Shiryo K.K.) per kg of bodyweight simultaneously with the intravenous administration.
# Then, the motor activity of gastrointestinal tracts and length of the post-feed period were measured. Intensity of the contraction in the post-feed period was integrated for the two-hour measurements and evaluated in comparison with the mean level of the signal peak in phase 3 motor activity of the gastrointestinal tracts in hunger and taken as a motor index.
# [2] = 400 pmol/kg i.v. over 1 hour, post-feed contraction integrated over two hours relative to phase 3 peak in hunger, average ± standard error
# [3] = 400 pmol/kg i.v. over 1 hour, versus control
molecule,measurement,setting,value
B1,Change in appearance,male BALB/c mice,no change in appearance is observed
same,Length of post-feed period,"[1]; 400 pmol/kg glicentin intravenously over 1 hour, fed simultaneously, average ± standard error",13.6 ± 1.0 h
same,"Motor index, duodenum",[1]; [2],0.675 ± 0.4
same,"Motor index, gastric antrum",[1]; [2],0.878 ± 0.1
same,"Motor index, jejunum",[1]; [2],1.087 ± 0.2
same,Influence upon the length of the post-feed period (in words),[1]; [3],no influence upon the length of the post-feed period
same,Post-feed motility in the vestibulum of stomach (in words),[1]; [3],inhibited the post-feed motility in the vestibulum of stomach
